Where no end group is shown, it is not given here.
Columns and labels:
PD-L1 (SPR target) [1] = target: T1, PD-L1 (SPR target) (UniProt Q9NZQ7 19-238, limits assumed); assay: SPR
T1 construct: also called PD-L1/CD274

PD-L1 (SPR target) [2] = target: T1, PD-L1 (SPR target); assay: SPR; drawn table under the sensorgrams, column Ka
PD-L1 (SPR target) [3] = target: T1, PD-L1 (SPR target); assay: SPR; drawn table under the sensorgrams, column KD
PD-L1 (SPR target) [4] = target: T1, PD-L1 (SPR target); assay: SPR; drawn table under the sensorgrams, column Kd

T1 sequence (Q9NZQ7 19-238 limits assumed): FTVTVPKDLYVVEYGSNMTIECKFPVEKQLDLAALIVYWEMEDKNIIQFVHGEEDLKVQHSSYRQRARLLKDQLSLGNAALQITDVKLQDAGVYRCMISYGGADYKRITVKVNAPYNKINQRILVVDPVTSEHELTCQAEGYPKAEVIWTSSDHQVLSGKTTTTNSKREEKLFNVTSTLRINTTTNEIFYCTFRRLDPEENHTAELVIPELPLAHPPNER

Row | strength of KD relative to free peptide (pPD1) (PD-L1 (SPR target) [1]) | kon (PD-L1 (SPR target) [2]) | Kd (PD-L1 (SPR target) [3]) | koff (PD-L1 (SPR target) [4]) | Binder
1 | ~100000 fold | 252000 M⁻¹ s⁻¹ | 2.75 nM | 0.000693 s⁻¹ | HVVWHRESPSGQTDTLAA (other, not fully specified (C-terminus); also: conjugated to G7 PAMAM dendrimer, attachment site and number per dendrimer not given here, Multivalent conjugate; Only the peptide part is a polypeptide; also called dendrimer-pPD-1; dendrimer-peptide conjugates) [dendrimer-peptide conjugate G7-pPD1 (pPD-1 peptides conjugated to PAMAM dendrimer)]
2 |  | 583000 M⁻¹ s⁻¹ | 2.09 nM | 0.00122 s⁻¹ | aPD-L1 (full anti-PD-L1 antibody) (antibody, V domains shown) VH: EVQLLESGGGLVQPGGSLSLSCAASGFSFSSGYDMCWVRQAPGKGLEWIACIAAGSAGITYDANWAKGRFTISRDNSKNTLYLQMNSLRAEDTAVYYCARSAFSFDYAMDLWGQGTLVTVSS VL: DIQMTQSPSTLSASVGDRVTITCQASQSISSHLNWYQQKPGKAPKLLIYKASTLASGVPSRFSGSGSGTEFTLTISSLQPDDFATYYCQQGYSWGNVDNVFGGGTKVTVL
3 |  |  | 119000 nM | 0.127 s⁻¹ | HVVWHRESPSGQTDTLAA (not fully specified (C-terminus), also called free pPD-1) [PD-L1-binding peptide (pPD-1), free peptide]
